Numbering of substitutions follows the chain as printed.
B1: CAB1.4 (protein)
chain: QVQLQQSGAELVKSGGSVKLSCTASGFNIKDSYMHWVRQGPEQGLEWIGWIDPENGDTEYAPKFQGKATFTTDTSSNTAYLQLSSLTSEDTAVYYCNEGTPTGPYYFDYWGQGTTVTVSSGGGGSGGGGSGGGGSENVLTQSPAIVSASPGEKVTITCSASSSVSYMHWFQQKPGTSPKLVIYDTSNLASGVPARFSGSGSGTSYSLTISRMEAEDAATYYCQQRDSYPLTFGAGTKLELKRAATPVSEKQLAEVVANTITPLMKAQSVPGMAVAVIYQGKPHYYTFGKADIAANKPVTPQTLFELGSISKTFTGVLGGDAIARGEISLDDAVTRYWPQLTGKQWQGIRMLDLATYTAGGLPLQVPDEVTDNASLLRFYQNWQPQWKPGTTRLYANASIGLFGALAVKPSGMPYEQAMTTRVLKPLKLDHTWINVPKAEEAHYAWGYRDGKAVRVSPGMLDAQAYGVKTNVQDMANWVMANMAPENVADASLKQGIALAQSRYWRIGSMYQGLGWEMLNWPVEANTVVETSFGNVALAPLPVAEVNPPAPPVKASWVHKTGSTGGFGSYVAFIPEKQIGIVMLANTSYPNPARVEAAYHILEALQ
B2: CAB1.7: best variant of library SW155 from SW149.5; SEQ ID NO:9 (protein)
chain: B1 chain with T100L, T102L, P104A, Y105I, F107N, S163A, S165Y, Y166A, K241D
modifications: CAB1.7 protein variant
B3: SW149.5 (protein)
chain: B1 chain with T100L, T102L, P104A, Y105I, F107N

How the values were obtained:
[1] = molecular target: T1, CEA (carcinoembryonic antigen) (Homo sapiens, UniProt P06731); assay: CEA-binding assay on CEA-coated plates, bound BLA activity read with nitrocefin; details: for binding to CEA / affinity in library screening: relative to parent clone
T1 construct: purchased Biodesign Intl., Saco, Me
T1 sequence (P06731 35-676): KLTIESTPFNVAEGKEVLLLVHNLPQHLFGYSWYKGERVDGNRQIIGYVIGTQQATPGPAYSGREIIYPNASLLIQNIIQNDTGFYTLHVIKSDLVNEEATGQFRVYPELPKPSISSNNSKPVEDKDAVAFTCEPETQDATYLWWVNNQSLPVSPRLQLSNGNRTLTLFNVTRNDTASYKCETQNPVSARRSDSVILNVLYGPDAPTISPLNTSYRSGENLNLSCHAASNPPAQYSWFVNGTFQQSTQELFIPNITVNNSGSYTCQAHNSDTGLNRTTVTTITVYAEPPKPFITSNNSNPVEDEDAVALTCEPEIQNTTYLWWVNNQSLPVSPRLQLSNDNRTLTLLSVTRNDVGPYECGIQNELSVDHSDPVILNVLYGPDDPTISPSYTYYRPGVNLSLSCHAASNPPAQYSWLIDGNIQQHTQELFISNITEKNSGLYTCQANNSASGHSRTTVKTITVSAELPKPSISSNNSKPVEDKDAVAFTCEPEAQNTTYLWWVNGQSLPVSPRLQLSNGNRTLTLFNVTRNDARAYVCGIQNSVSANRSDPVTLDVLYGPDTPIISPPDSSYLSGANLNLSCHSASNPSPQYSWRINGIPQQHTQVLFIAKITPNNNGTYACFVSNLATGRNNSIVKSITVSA
Protocol: (§1) Binding to CEA (carcinoembryonic antigen, Biodesign Intl., Saco, Me.) was measured using the following procedure: 96-well plates were coated with 100 ul per well of 5 ug/ml of CEA in 50 mM carbonate buffer pH 9.6 overnight. The plates were washed with PBST and blocked for 1-2 hours with 300 ul of casein (Pierce, Rockford, Ill.). 100 ul of sample from the production plate diluted 100-1000 fold was added to the CEA-coated plate and the plates were incubated for 2 h at room temperature. Subsequently, the plates were washed four times with PBST and 200 ul nitrocefin assay buffer was added, and the BLA activity was measured as described above.
as §1, with “Biodesign Intl., Saco. Me.) was” for “Biodesign Intl., Saco, Me.) was”, “Ill.). 100 n1 of sample” for “Ill.). 100 ul of sample”, “to the CEA coated plate and” for “to the CEA-coated plate and”, “described above. CEA binding was measured in 50 mM phosphate buffer pH 6.5 and in a separate experiment in 50 mM phosphate buffer pH 7.4.” for “described above.”
Winners were confirmed by culturing them in 5 ml of LB medium containing 5 mg/l chloramphenicol and 0.1 mg/l cefotaxime (Sigma) for 2 days at 37 C. Subsequently, the cultures were centrifuged and the pellet was suspended in 375 ul of BPER reagent to release the fusion protein. BLA activity was determined as above. One unit of activity was defined as the amount of BLA that leads to an absorbance increase of one mOD per minute. The samples were diluted based on their total content of BLA activity and the CEA-binding assay was performed as described above but adding various sample dilutions to each well.
In order to compare the target-binding properties of various CAB1 variants, we grew 5 ml cultures of TOP10F′ containing the corresponding expression plasmids, as provided above for 3 days at 25 C in LB medium containing 5 mg/l chloramphenicol. The cultures were centrifuged, and the resulting supernatant was discarded. The cell pellets were resuspended in 500 μL of B-PER reagent. This was incubated for 30 minutes. Lactamase concentration in each sample was determined using nitrocephin as substrate, as provided above.
Binding of the samples to microtiter plates coated with CEA was studied in 50 mM phosphate buffer at pH 6.5 and pH 7.4, as provided above.

LS174T cells = assay: Binding of CAB variants to fixed LS174T cells; parameters: species or system human
Protocol: In a similar experiment, binding of variants to LS174T cells was measured. LS174T cells were inoculated in 96 well polystyrene plate at 1×10^5 cells/well in a medium containing 70% DMEM, 30% F12, non-essential amino acids, L-Glut, and Sodium Pyruvate (all from Mediatech). The plate was incubated at 37° C. in a humidified CO2 incubator for 20 hours. The cells were then fixed with 4% formaldehyde in PBS (Polysciences, Warrington, Pa.). The plate was washed with PBST, and 1 mg/ml NaBH4 (Sigma) was added into each well to quench any reactive group. Then the plate was washed again with PBST. Binding of CAB molecules was continued the same way as binding to CEA antigen.

host proteases = assay: Screen for improved expression: total BLA activity and CEA-bound BLA activity of CAB1 fusion variants after 3 days of culture (resistance to host proteases); details: limited randomized library on pSW129.5 template
Protocol: Degradation seems to occur mainly in the scFv portion of the CAB1 fusion protein as the cultures contain significant amounts of free BLA after 3 days, which can be detected by Western blotting, or a nitrocefin (Oxoid, N.Y.) activity assay. Thus we applied a screen to library NA05 that was able to detect variants of CAB1-scFv that would resist degradation by host proteases over 3 days of culture at 37 C.
Library NA05 was plated onto agar plates with LA medium containing 5 mg/l chloramphenicol and 0.1 mg/l cefotaxime (Sigma). 910 colonies were transferred into a total of 10 96-well plates containing 100 ul/well of LA medium containing 5 mg/l chloramphenicol and 0.1 mg/l cefotaxime. […] The production plate was diluted 100-fold in PBST (PBS containing 0.125% Tween-20) and BLA activity was measured by transferring 20 ul diluted lysate into 180 ul of nitrocephin assay buffer (0.1 mg/ml nitrocephin in 50 mM PBS buffer containing 0.125% octylglucopyranoside (Sigma)) and the BLA activity was determined at 490 inn using a Spectramax plus plate reader (Molecular Devices, Sunnyvale, Calif.).
Binding to CEA (carcinoembryonic antigen, Biodesign Intl., Saco, Me.) was measured using the following procedure: 96-well plates were coated with 100 ul per well of 5 ug/ml of CEA in 50 mM carbonate buffer pH 9.6 overnight. […]

Molecule	binding to CEA ([1]; pH 6.5)	binding to CEA ([1]; pH 7.4)	binding to LS174T cells (LS174T cells; pH 6.5)	saturation levels of binding curves on LS174T cells (LS174T cells; pH 6.5 vs pH 7.4)	binding to LS174T cells (LS174T cells; pH 7.4, compared to CAB1.2)	binding to CEA / affinity in library screening [1]	expression (host proteases)
B1	significant binding	very weak binding					
B2			closely resembles the binding curve of CAB1.2	pH-dependent	significantly weaker binding	significantly improved binding to CEA	
B3						improved expression and affinity	improved expression

From patent publication US20110160440A1, “Cab Molecules” (GENENCOR INTERNATIONAL, INC., priority 2003, published 2011)
